The target in series [1] is P27838. As to the kind of experiment: dynamic light scattering; CyaY 2 mg/ml (0.16 mM) with ammonium iron (II) sulfate, Fe2+:protein 1:1, 2:1, 4:1, 6:1, 8:1, 10:1; 1 h at 30°C; volume distribution. Conditions: other: dynamic light scattering.
Series [2] addresses P27838. The series is described as follows: dynamic light scattering; CyaY with Fe2+ 6:1 (DFO also 8:1) for 15 min, then chelator (deferiprone, DFO or BIPY) at 3 times the amount of iron. Conditions: other: dynamic light scattering.

B1: E. coli frataxin CyaY (protein)
chain: MNDSEFHRLADQLWLTIEERLDDWDGDSDIDCEINGGVLTITFENGSKIIINRQEPLHQVWLATKQGGYHFDLKGDEWICDRSGETFWDLLEQAATQQAGETVSFR
On to B1, for which, in the series with P27838 [1], the % of particles with hydrodynamic radius 3.0–5.9 nm (oligomers), with iron (Fe2+ 6:1) is 77%; the “% of particles with hydrodynamic radius 6–8.5 nm (oligomers), with iron (Fe2+ 8:1)” value is given as “about 74% of the particles having a hydrodynamic radius in the range of 6–8.5 nm”; the % of particles with hydrodynamic radius 8.5–14 nm (oligomers), with iron (Fe2+ 6:1) came to 23%; the “% of particles with hydrodynamic radius 8.5–14 nm (oligomers), with iron (Fe2+ 8:1)” value is “(25% and 1%, respectively, not shown)”. In the series with P27838 [1], the “% of particles with hydrodynamic radius 8.5–14 nm (oligomers), with iron (Fe2+ 10:1)” value is listed as 8.5–14 nm (83%); the “% of particles with hydrodynamic radius 26–40 nm (oligomers), with iron (Fe2+ 10:1)” value is 26–40 nm (17%); the “% of particles with hydrodynamic radius >100 nm, with iron (Fe2+ 8:1)” value is “(25% and 1%, respectively, not shown)”. Besides, in the series with P27838 [2], the % of particles in the monomer range (hydrodynamic radius 1.6–2.1 nm), with iron (Fe2+ 6:1) and BIPY came out at 76%; the % of particles in the monomer range (hydrodynamic radius 1.6–2.1 nm), with iron (Fe2+ 6:1) and DFO was found to be 93%; the % of particles with hydrodynamic radius 2.2–2.9 nm (smaller oligomers), with iron (Fe2+ 6:1) and deferiprone was 95%; the % of particles with hydrodynamic radius 6.0–8.5 nm (oligomers), with iron (Fe2+ 6:1) and BIPY is 24%. In the series with P27838 [2], the % of particles with hydrodynamic radius 6.0–8.5 nm (oligomers), with iron (Fe2+ 6:1) and DFO was determined as 7%; the % of particles with hydrodynamic radius 8.5–14 nm (oligomers), with iron (Fe2+ 6:1) and deferiprone was determined as 5%; the “% of particles with hydrodynamic radius 8.5–14 nm (oligomers), with iron (Fe2+ 8:1) and DFO” value is on record as “(8.5–14 nm, 100%, Fig 3B)”.

Values taken from PMC5714350.
